Measurements as given in US20240082346A1 (MAINLINE BIOSCIENCES SHANGHAI, published 2024).
Bridge positions count the residues as written; N and C are the ends. Square brackets hold non-standard residues; d marks the D form. * marks the point of attachment. 2Nal = N[C@@H](Cc1ccc2ccccc2c1)C(=O)O; Lys(iPr) = CC(C)NCCCC[C@H](N)C(=O)O; Palmitoyl = CCCCCCCCCCCCCCCC(=O)*; Lauroyl = CCCCCCCCCCCC(=O)*; hCys = N[C@@H](CCS)C(=O)O; PhAc = O=C(Cc1ccccc1)*; Bz = O=C(c1ccccc1)*; Mpa = O=C(O)CCS; iPr = CC(C)*

target: T1, Human chemokine receptor CXCR4 (human, UniProt P61073 1-352); assay: displacement of [125I]SDF-1α (0.03 nM) from membranes of Chem-1 cells expressing human CXCR4
T1 construct: whole, on cells; Membranes of Chem-1 cells expressing human CXCR4 (0.5 ug membrane protein per aliquot); also called C-X-C chemokine receptor type 4; fusin
T1 sequence (P61073 whole entry): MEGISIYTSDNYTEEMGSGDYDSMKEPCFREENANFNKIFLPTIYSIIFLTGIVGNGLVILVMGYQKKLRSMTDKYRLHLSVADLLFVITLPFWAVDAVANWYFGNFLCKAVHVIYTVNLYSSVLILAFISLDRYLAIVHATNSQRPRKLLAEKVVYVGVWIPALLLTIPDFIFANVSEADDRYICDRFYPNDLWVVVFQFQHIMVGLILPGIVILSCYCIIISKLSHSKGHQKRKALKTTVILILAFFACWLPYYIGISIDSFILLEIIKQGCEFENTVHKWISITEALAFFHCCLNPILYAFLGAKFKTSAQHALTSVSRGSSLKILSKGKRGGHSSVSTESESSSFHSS
Method: Human CXCR4/¹²⁵I-SDF-1α Binding Inhibition Assay: Human chemokine receptor CXCR4 expressed in Chem-1 cells were used in modified HEPES buffer pH 7.4. A 0.5 μg (Membrane protein may change from lot to lot, the concentration used were adjusted as necessary), aliquot was incubated with 0.03 nM [¹²⁵I]SDF-1α for 90 minutes at 25° C. Non-specific binding was estimated in the presence of 30 nM SDF-la. Membranes were filtered and washed, filters were then counted to determine [¹²⁵I]SDF-1α specifically bound. Compounds were screened starting at 10 μM with 11-point dilutions (Valenzuela-Fernandez A, et al. J Biol Chem. 277(18):15677, 2002).

With “[Mpa]Y[Lys(iPr)][dR][2Nal]GC[Lys(iPr)]G[2Nal]G-NH2 (disulfide 1-7)” as the molecule, how does the Binding Kb read?
The Binding Kb was 0.29 nM.

And the IC50?
The IC50 was 0.95 nM.

What does the source list for Ac-[hCys]YK(iPr)[dR][2Nal]GCK(iPr)G-NH2 (disulfide 1-7; also: acetate salt, Acetate salt; also called MLB-010) [Ac-cyclo[hCys-Tyr-Lys(iPr)-(D-Arg)-2Nal-Gly-Cys]-Lys(iPr)-Gly-NH2]?
Binding Kb: 0.17 nM; IC50: 0.56 nM

With [Mpa]YK(iPr)[dR][2Nal]GC[dR]G[dF]G-NH2 (disulfide 1-7; also: acetate salt, also called MLB-004) [cyclo[Mpa-Tyr-Lys(iPr)-(D-Arg)-2Nal-Gly-Cys]-(D-Arg)-Gly-(D-Phe)-Gly-NH2] as the molecule, how does the “Binding Kb” value read?
Its value is 0.21 nM.

And the IC50?
The IC50 was 0.7 nM.

For Ac-[hCys]YK(iPr)[dR][2Nal]GCK(iPr)G-NHEt (disulfide 1-7; also: acetate salt, Acetate salt; also called MLB-026) [Ac-cyclo[hCys-Tyr-Lys(iPr)-(D-Arg)-2Nal-Gly-Cys]-Lys(iPr)-Gly-NH(Et)], which “Binding Kb” value is on record?
Its value is 0.27 nM.

And the IC50?
Its IC50 is 0.89 nM.

How did the “Binding Kb” value turn out when Bz-[hCys]YK(iPr)[dR][2Nal]GCK(iPr)G-NHEt (disulfide 1-7; also: acetate salt, Acetate salt; also called MLB-024) [Benzoyl-cyclo[hCys-Tyr-Lys(iPr)-(D-Arg)-2Nal-Gly-Cys]-Lys(iPr)-Gly-NH(Et)] was run?
The value was 0.39 nM.

What about the IC50 of the same molecule?
Its IC50 is 1.3 nM.

With [Mpa]RYR[2Nal]GCRG[dF]G-NH2 (disulfide 1-7; also: acetate salt, Acetate salt; also called MLB-011) [cyclo[Mpa-Arg-Tyr-Arg-2Nal-Gly-Cys]-Arg-Gly-(D-Phe)-Gly-NH2] as the molecule, how does the “Binding Kb” value read?
The value was over 1000 nM.

With [Mpa]YK(iPr)[dR][2Nal]GCRG[dF]G-NH2 (disulfide 1-7; also: acetate salt, Acetate salt; also called MLB-002) [cyclo[Mpa-Tyr-Lys(iPr)-(D-Arg)-2Nal-Gly-Cys]-Arg-Gly-(D-Phe)-Gly-NH2] as the molecule, how does the “Binding Kb” value read?
Its value is 0.28 nM.

And the IC50?
The IC50 was 0.92 nM.

How did the “Binding Kb” value turn out when [Mpa]YR[dR][2Nal]GCRG[dF]G-NH2 (disulfide 1-7; also: acetate salt, Acetate salt; also called MLB-001) [cyclo[Mpa-Tyr-Arg-(D-Arg)-2Nal-Gly-Cys]-Arg-Gly-(D-Phe)-Gly-NH2] was run?
The value was 7.3 nM.

And the IC50?
Its IC50 is 24 nM.

Bz-[hCys]YK(iPr)[dR][2Nal]GCK(iPr)G-NH2 (disulfide 1-7; also: acetate salt, Acetate salt; also called MLB-021) [Benzoyl-cyclo[hCys-Tyr-Lys(iPr)-(D-Arg)-2Nal-Gly-Cys]-Lys(iPr)-Gly-NH2] was tested. Which “Binding Kb” value did it give?
Its value is 0.13 nM.

And the IC50?
Its IC50 is 0.42 nM.

Which results are given for PhAc-[hCys]YK(iPr)[dR][2Nal]GCK(iPr)G-NH2 (disulfide 1-7; also: acetate salt, also called MLB-025) [Phenylacetyl-cyclo[hCys-Tyr-Lys(iPr)-(D-Arg)-2Nal-Gly-Cys]-Lys(iPr)-Gly-NH2]?
Binding Kb: 0.25 nM; IC50: 0.84 nM

Which results are given for [Mpa]YK(iPr)[dR][2Nal]GCK(iPr)G-NHEt (disulfide 1-7; also: acetate salt, Acetate salt; also called MLB-014) [cyclo[Mpa-Tyr-Lys(iPr)-(D-Arg)-2Nal-Gly-Cys]-Lys(iPr)-Gly-NH(Et)]?
Binding Kb: 0.19 nM; IC50: 0.64 nM

What does the source list for Ac-CYK(iPr)[dR][2Nal]GCK(iPr)G-NH2 (linker 1-7 via 1,3‑bis(methylene)benzene; also: acetate salt, Acetate salt) [MLB-033 (compound of Example 23; structure given only as drawing CHEM-US-00016)]?
Binding Kb: 0.99 nM; IC50: 3.3 nM

Which results are given for Bz-CYK(iPr)[dR][2Nal]GCK(iPr)G-NH2 (disulfide 1-7; also: acetate salt, Acetate salt; also called MLB-023) [Benzoyl-cyclo[Cys-Tyr-Lys(iPr)-(D-Arg)-2Nal-Gly-Cys]-Lys(iPr)-Gly-NH2]?
Binding Kb: 1 nM; IC50: 3.4 nM

How did the “Binding Kb” value turn out when Bz-CYK(iPr)[dR][2Nal]G[hCys]K(iPr)G-NH2 (disulfide 1-7; also: acetate salt, Acetate salt; also called MLB-022) [Benzoyl-cyclo[Cys-Tyr-Lys(iPr)-(D-Arg)-2Nal-Gly-hCys]-Lys(iPr)-Gly-NH2] was run?
The value was 0.21 nM.

What about the IC50 of the same molecule?
The IC50 was 0.71 nM.

Which “Binding Kb” value does the source give for [Mpa]YK(iPr)[dR][2Nal]GCK(iPr)K(Lauroyl)-NHEt (disulfide 1-7; also: acetate salt, Acetate salt; also called MLB-028) [cyclo[Mpa-Tyr-Lys(iPr)-(D-Arg)-2Nal-Gly-Cys]-Lys(iPr)-Lys(lauroyl)-NH(Et)] here?
Its value is 2.5 nM.

And the IC50?
The IC50 was 8.2 nM.

Ac-CYK(iPr)[dR][2Nal]GCK(iPr)G-NH2 (linker 1-7 via 1,2‑bis(methylene)benzene; also: acetate salt, Acetate salt) [MLB-032 (compound of Example 22; structure given only as drawing CHEM-US-00015)] was tested. Which “Binding Kb” value did it give?
The value was 0.12 nM.

And the IC50?
Its IC50 is 0.4 nM.

For Bz-CYK(iPr)[dR][2Nal]GCK(iPr)G-NH2 (linker 1-7 via 1,2‑bis(methylene)benzene; also: acetate salt, Acetate salt) [MLB-030 (compound of Example 20; structure given only as drawing CHEM-US-00013)], which “Binding Kb” value is on record?
The value was 0.39 nM.

And the IC50?
Its IC50 is 1.3 nM.

How did the “Binding Kb” value turn out when [Mpa]YK(iPr)[dR][2Nal]GCK(iPr)K(Palmitoyl)-NHEt (disulfide 1-7; also: acetate salt, Acetate salt; also called MLB-029) [cyclo[Mpa-Tyr-Lys(iPr)-(D-Arg)-2Nal-Gly-Cys]-Lys(iPr)-Lys(palmitoyl)-NH(Et)] was run?
The value was 3.2 nM.

And the IC50?
Its IC50 is 11 nM.

How did the “Binding Kb” value turn out when [Mpa]YK(iPr)[dR][2Nal]GCK(iPr)K(Ac)-NHEt (disulfide 1-7; also: acetate salt, Acetate salt; also called MLB-027) [cyclo[Mpa-Tyr-Lys(iPr)-(D-Arg)-2Nal-Gly-Cys]-Lys(iPr)-Lys(Ac)-NH(Et)] was run?
The value was 0.15 nM.

What about the IC50 of the same molecule?
The IC50 was 0.48 nM.
